The target in one experiment is Ubc13 C87K/K92T/K94Q (UniProt P61088). Description: NMR.
The target of the next experiment is Ubc13 (UniProt P61088). Description: NMR titration.

The term Kd denotes the constant that tells how readily two partners part at equilibrium.

Sequence of Ubc13 C87K/K92T/K94Q (P61088 whole entry C87K/K92T/K94Q): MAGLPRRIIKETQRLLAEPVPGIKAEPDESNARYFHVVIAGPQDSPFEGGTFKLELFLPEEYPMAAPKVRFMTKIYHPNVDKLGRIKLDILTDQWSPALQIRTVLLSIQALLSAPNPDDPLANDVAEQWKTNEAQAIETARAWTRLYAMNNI
Sequence of Ubc13 (P61088 whole entry): as the sequence (P61088 whole entry C87K/K92T/K94Q) above, with K87C, T92K, Q94K counted along it

In the experiment with Ubc13 C87K/K92T/K94Q, “ubiquitin (wild type, Q40Ub) (from UniProt P0CG48 1-76) (natural protein)” yielded a population of the closed state of the conjugate of 60% and a population of the closed state of the conjugate with RNF38 RING of 80%. In the experiment with Ubc13, “RNF38 RING domain (residues 387-465) (domain or fragment)” showed a Kd of 55 µM. This lies in the double-digit micromolar range.

The values above are taken from paper doi:10.1101/2023.05.22.541748.
